In US20210275657A1, “NEOANTIGENS AND USES THEREOF” (BioNTech US Inc., priority 2018, published 2021):
One block for each binder: values may come before it.

Assays:
Settings in all cases: remark: other sources report otherwise
HLA-A02:01 (human) [1] = assay: peptide-HLA stability, Example 36
HLA-B07:02 (human) [2] = assay: peptide-HLA stability, Example 36
HLA-B08:01 (human) [3] = assay: peptide-HLA stability, Example 36
HLA-A02:01 (human) [4] = assay: peptide-HLA affinity, Example 36
HLA-B07:02 (human) [5] = assay: peptide-HLA affinity, Example 36
HLA-B08:01 (human) [6] = assay: peptide-HLA affinity, Example 36
HLA-A02:01 (human) [7] = assay: peptide-HLA stability, Example 41
HLA-A01:01 (human) [8] = assay: peptide-HLA stability, Example 41
HLA-A02:01 (human) [9] = assay: peptide-HLA affinity, Example 41
HLA-A01:01 (human) [10] = assay: peptide-HLA affinity, Example 41
HLA-B08:01 (human) [11] = assay: peptide-HLA stability, Example 41
HLA-B07:02 (human) [12] = assay: peptide-HLA stability, Example 41
HLA-B07:02 (human) [13] = assay: peptide-HLA affinity, Example 41
HLA-A02:01 (human) [14] = assay: peptide-HLA affinity, Example 9
HLA-A02:01 (human) [15] = assay: peptide-HLA stability, Example 9
HLA-A24:02 (human) [16] = assay: peptide-HLA affinity, Example 9
HLA-A02:01 (human) [17] = assay: pMHC-I dissociation, 125I-b2m, 37C; average of 2
HLA-B08:01 (human) [18] = assay: pMHC-I dissociation, 125I-b2m, 37C; average of 2
HLA-A02:01 (human) [19] = assay: pMHC-I dissociation, 125I-b2m, 37C; experiment 2
HLA-B08:01 (human) [20] = assay: pMHC-I dissociation, 125I-b2m, 37C; experiment 2
HLA-A02:01 (human) [21] = assay: pMHC-I dissociation, 125I-b2m, 37C; experiment 1
HLA-B08:01 (human) [22] = assay: pMHC-I dissociation, 125I-b2m, 37C; experiment 1
HLA-B08:01 (human) [23] = assay: peptide-HLA stability, Example 9
HLA-A24:02 (human) [24] = assay: peptide-HLA stability, Example 9

B1: … (peptide)
peptide: SLLNYLREM
Stability (1/2 hr) (HLA-A02:01 (human) [1]): 3.04 h
Stability (1/2 hr) (HLA-B07:02 (human) [2]): 0 h
Stability (1/2 hr) (HLA-B08:01 (human) [3]): 0 h
Affinity (HLA-A02:01 (human) [4]): 67.7 nM
Affinity (HLA-B07:02 (human) [5]): 866 nM
Affinity (HLA-B08:01 (human) [6]): 960 nM

B2: … (peptide)
peptide: CLTSTVQLIM
Stability (1/2 hr) (HLA-A02:01 (human) [7]): 0 h
Stability (1/2 hr) (HLA-A01:01 (human) [8]): 0 h
Affinity (HLA-A02:01 (human) [9]): 537 nM
Affinity (HLA-A01:01 (human) [10]): 8.28 µM

B3: … (peptide)
peptide: IMQLMPFGCL
Stability (1/2 hr) (HLA-A02:01 (human) [7]): 0.516 h
Stability (1/2 hr) (HLA-B08:01 (human) [11]): 0 h
Affinity (HLA-A02:01 (human) [9]): 653 nM

B6: … (peptide)
peptide: ALQPLQPHA
Observed MHC affinity (HLA-A02:01 (human) [14]): 604 nM
Observed MHC stability (HLA-A02:01 (human) [15]): 1.5 h

B8: … (peptide)
peptide: LIMQLMPFG
Stability (1/2 hr) (HLA-A02:01 (human) [7]): 0 h
Affinity (HLA-A02:01 (human) [9]): 3340 nM

B9: … (peptide)
peptide: YMFLKAESKI
Observed MHC affinity (HLA-A24:02 (human) [16]): 7 µM
half-life (HLA-A02:01 (human) [17]): 36 min
half-life (HLA-B08:01 (human) [18]): 24 min
half-life (HLA-A02:01 (human) [19]): 36 min
half-life (HLA-B08:01 (human) [20]): 30 min
half-life (HLA-A02:01 (human) [21]): 36 min
half-life (HLA-B08:01 (human) [22]): 24 min
Observed MHC stability (HLA-A02:01 (human) [15]): 0.6 h
Observed MHC stability (HLA-B08:01 (human) [23]): 0.4 h
Observed MHC stability (HLA-A24:02 (human) [24]): 1.2 h

B11: … (peptide)
peptide: IMQLMPFGC
Stability (1/2 hr) (HLA-A02:01 (human) [7]): 0.37 h
Affinity (HLA-A02:01 (human) [9]): 1210 nM

B12: … (peptide)
peptide: MQLMPFGCLL
Stability (1/2 hr) (HLA-A02:01 (human) [7]): 0.381 h
Affinity (HLA-A02:01 (human) [9]): 16.3 nM

B13: … (peptide)
peptide: YMANGSLLN
Stability (1/2 hr) (HLA-A02:01 (human) [1]): 0 h
Affinity (HLA-A02:01 (human) [4]): 4000 nM

Further lines, results first:

Stability (1/2 hr) (HLA-A02:01 (human) [7]): 0.368 h
Stability (1/2 hr) (HLA-B07:02 (human) [12]): 0 h
Stability (1/2 hr) (HLA-B08:01 (human) [11]): 0 h
Affinity (HLA-A02:01 (human) [9]): 116 nM
Affinity (HLA-B07:02 (human) [13]): 1590 nM
B4: … (peptide)
peptide: MQLMPFGCL

Stability (1/2 hr) (HLA-A02:01 (human) [1]): 0 h
Affinity (HLA-A02:01 (human) [4]): 1010 nM
B5: … (peptide)
peptide: MANGSLLNYL

Stability (1/2 hr) (HLA-A01:01 (human) [8]): 0.104 h
Affinity (HLA-A01:01 (human) [10]): 2.89 µM
B7: … (peptide)
peptide: LTSTVQLIM

Stability (1/2 hr) (HLA-A02:01 (human) [7]): 0 h
Affinity (HLA-A02:01 (human) [9]): 7260 nM
B10: … (peptide)
peptide: STVQLIMQL
